The source of these data is PMC4379099 (PLoS Pathogens, 2015).

One assay concerns MAP kinases. The assay is classed as cell-based, rice.
For assay [1], the target named is EFR::GFP (full-length Arabidopsis EFR with a carboxyl-terminal GFP fusion, transgenic rice) (Arabidopsis) (UniProt C0LGT6).
For assay [2], the target named is T1, EFR::XA21::GFP chimeric receptor (EFR ectodomain 1-649 fused to XA21 651-1025, carboxyl-terminal GFP, transgenic rice) (Arabidopsis | rice (Oryza longistaminata)) (UniProt C0LGT6).
T1 sequence: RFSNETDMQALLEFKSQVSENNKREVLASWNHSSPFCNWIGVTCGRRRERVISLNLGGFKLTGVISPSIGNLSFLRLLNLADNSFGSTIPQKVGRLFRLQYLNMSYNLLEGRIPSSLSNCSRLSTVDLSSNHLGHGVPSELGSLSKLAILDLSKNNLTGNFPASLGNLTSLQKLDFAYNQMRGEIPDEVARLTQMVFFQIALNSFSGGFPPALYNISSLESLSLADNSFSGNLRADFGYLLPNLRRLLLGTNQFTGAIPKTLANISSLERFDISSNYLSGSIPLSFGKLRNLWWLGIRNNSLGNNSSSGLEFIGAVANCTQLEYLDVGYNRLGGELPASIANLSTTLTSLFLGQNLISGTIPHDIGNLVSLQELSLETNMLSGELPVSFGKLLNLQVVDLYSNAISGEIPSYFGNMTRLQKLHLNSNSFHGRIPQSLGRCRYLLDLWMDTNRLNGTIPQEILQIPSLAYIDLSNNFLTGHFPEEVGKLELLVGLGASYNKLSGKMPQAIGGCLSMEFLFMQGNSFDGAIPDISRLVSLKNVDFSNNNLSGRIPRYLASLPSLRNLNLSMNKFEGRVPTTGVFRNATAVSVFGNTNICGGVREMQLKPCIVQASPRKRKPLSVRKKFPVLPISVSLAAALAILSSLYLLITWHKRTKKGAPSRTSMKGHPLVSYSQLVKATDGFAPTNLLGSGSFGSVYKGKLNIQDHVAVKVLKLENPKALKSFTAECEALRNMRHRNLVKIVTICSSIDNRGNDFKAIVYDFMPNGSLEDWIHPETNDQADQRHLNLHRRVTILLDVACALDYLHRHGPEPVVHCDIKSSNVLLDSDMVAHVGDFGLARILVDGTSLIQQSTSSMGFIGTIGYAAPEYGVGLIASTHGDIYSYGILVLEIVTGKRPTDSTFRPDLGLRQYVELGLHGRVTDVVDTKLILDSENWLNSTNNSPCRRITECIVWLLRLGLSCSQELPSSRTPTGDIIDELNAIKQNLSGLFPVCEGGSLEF

chitin: the “MAP kinase activation (phospho p44/42 bands, ~47 kDa and 40 kDa)” value with MAP kinases is reported as “increase of two distinct bands”.

For “elf18_(E.coli) (from UniProt P0CE47 1-18) (peptide)”, the EC50 of ROS production in mature rice leaves (dose response curve) in assay [1] and in assay [2] was 300 pM each time.
